Molecular target: wild-type E. coli ClpX (E. coli) (UniProt P0A6H1)
Sequence of UniProt P0A6H1 (P0A6H1 whole entry): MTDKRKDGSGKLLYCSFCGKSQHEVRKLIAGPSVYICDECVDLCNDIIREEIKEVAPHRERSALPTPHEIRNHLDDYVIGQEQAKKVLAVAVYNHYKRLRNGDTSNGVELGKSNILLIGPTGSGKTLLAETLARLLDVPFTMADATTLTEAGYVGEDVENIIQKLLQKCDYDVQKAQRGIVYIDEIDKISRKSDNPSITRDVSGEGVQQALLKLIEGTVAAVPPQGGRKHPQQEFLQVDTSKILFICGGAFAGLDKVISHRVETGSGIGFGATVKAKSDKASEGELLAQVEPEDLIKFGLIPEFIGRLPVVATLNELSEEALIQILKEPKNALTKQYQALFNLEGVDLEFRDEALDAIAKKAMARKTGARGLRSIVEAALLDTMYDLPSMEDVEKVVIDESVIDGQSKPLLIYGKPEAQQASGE

## wild-type E. coli ClpP with a C-terminal His6 tag (from UniProt P0A6G7 15-207) (enzyme)
  rate of decapeptide cleavage by ClpP with ClpX•ATPγS, against ClpP alone: 9 fold

From article PMC2885556
